Assay results: PMC5427286
“And” between values parts separate entries of the source, which are not always exact repeats. Equal entries are not always repeated.

Tests used:
[1] = molecular target: Hsp21^V181A, non-dodecameric mutational variant of Hsp21 (A. thaliana) (UniProt P31170); experiment: SEC-SAXS; online SEC-SAXS, Superdex 200 Increase 10/300, 50 mM HEPES pH 7.5, 100 mM NaCl, 0.1% Tween 20, 0.15 ml/min; retention times 80-84 min; EOM with a pool of dimers and hexamers
[2] = molecular target: Hsp21 after limited proteolysis with trypsin (NTR degraded) (A. thaliana) (UniProt P31170); experiment: native gel or EMSA; non-denaturing PAGE of purified protein; also of samples withdrawn during 1-30 min of limited trypsin proteolysis

Hsp21 after limited proteolysis with trypsin (NTR degraded), sequence (P31170 44-227): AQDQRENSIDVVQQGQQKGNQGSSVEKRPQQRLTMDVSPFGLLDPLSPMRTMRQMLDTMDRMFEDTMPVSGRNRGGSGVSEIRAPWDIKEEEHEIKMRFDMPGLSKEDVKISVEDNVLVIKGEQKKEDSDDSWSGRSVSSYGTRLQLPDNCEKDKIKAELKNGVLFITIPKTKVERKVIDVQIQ

| stoichiometry N [1] | stoichiometry N [2] | Substance |
| --- | --- | --- |
| 2 and 6 |  | Hsp21^V181A, non-dodecameric mutational variant of Hsp21 (from UniProt P31170 44-227) (natural protein) |
|  | 12 | Hsp21 after limited proteolysis with trypsin (NTR degraded) (from UniProt P31170 44-227) (domain or fragment) |
